Assay results as given in patent JP2016028048A (dated 2016).
Where a chain is given by its changes, count along the chain named.

T1: ヒト組織因子経路インヒビター (human TFPI) (human, UniProt P10646 29-304, limits assumed)
T1 construct: Coated on Maxisorp plates (ELISA) or amine-coupled to a CM5 chip (Biacore); also called ヒトTFPI; hTFPI
T1 sequence (looked up): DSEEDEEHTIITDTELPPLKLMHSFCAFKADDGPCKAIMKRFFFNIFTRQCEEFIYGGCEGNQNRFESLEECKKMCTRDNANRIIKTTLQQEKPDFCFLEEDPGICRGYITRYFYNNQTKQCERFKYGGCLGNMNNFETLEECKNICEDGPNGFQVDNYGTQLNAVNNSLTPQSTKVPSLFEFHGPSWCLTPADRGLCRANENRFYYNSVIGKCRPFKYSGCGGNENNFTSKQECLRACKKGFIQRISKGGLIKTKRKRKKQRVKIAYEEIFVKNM

B1: TP-2E5 (Fab, V domains shown)
VH: QVQLQQSGPGLVKPSQTLSLTCAISGDSVSSNSAAWSWIRQSPGRGLEWLGMIFYRSKWNNDYAVSVKSRITINPDTSKNQFSLQLNSVTPEDTAVYYCARVNANGYYAYVDLWGQGTLVTVSS
VL: DIQMTQSPSSLSASVGDRVTITCRASQPIYNSLSWYQQKPGKAPKLLIYGVSNLQSGVPSRFSGSGSGTDFTLTISSLQPEDFAVYYCLQVDNLPITFGQGTKVEIKR
notes: Human Fab (HuCal Gold), made in E. coli TG1
B2: TP-2C1 (Fab, V domains shown)
VH: QVQLVESGGGLVQPGGSLRLSCAASGFTFSPYVMSWVRQAPGKGLEWVSSISSSSSNTYYADSVKGRFTISRDNSKNTLYLQMNSLRAEDTAVYYCARGDSYMYDVWGQGTLVTVSS
VL: DIELTQPPSVSVAPGQTARISCSGDSIGSYYAHWYQQKPGQAPVLVIYYDSKRPSGIPERFSGSNSGNTATLTISGTQAEDEADYYCQAYTGQSISRVFGGGTKLTVLG
notes: as for B1
B3: TP-3A4 (Fab, V domains shown)
VH: QVQLVESGGGLVQPGGSLRLSCAASGFTFSSYWMHWVRQAPGKGLEWVSSISYDSSNTYYADSVKGRFTISRDNSKNTLYLQMNSLRAEDTAVYYCARYGGMDYWGQGTLVTVSS
VL: DIELTQPPSVSVAPGQTARISCSGDNLRDKYASWYQQKPGQAPVLVIYSKSERPSGIPERFSGSNSGNTATLTISGTQAEDEADYYCSSYTLNPNLNYVFGGGTKLTVLG
notes: as for B1
B4: TP-3A3 (Fab, V domains shown)
VH: QVQLVESGGGLVQPGGSLRLSCAASGFTFNNNAISWVRQAPGKGLEWVSAINSSSSSTSYADSVKGRFTISRDNSKNTLYLQMNSLRAEDTAVYYCARGHHRGHSWASFIDYWGQGTLVTVSS
VL: DIELTQPPSVSVAPGQTARISCSGDNIGSKYVHWYQQKPGQAPVVVIYEDSDRPSGIPERFSGSNSGNTATLTISGTQAEDEADYYCQSWDKSEGYVFGGGTKLTVLG
notes: as for B1
B5: TP-3A2 (Fab, V domains shown)
VH: QVQLVESGGGLVQPGGSLRLSCAASGFTFSNYYLSWVRQAPGKGLEWVSGISYNGSSTNYADSVKGRFTISRDNSKNTLYLQMNSLRAEDTAVYYCARMWRYSLGADSWGQGTLVTVSS
VL: DIELTQPPSVSVAPGQTARISCSGDNIGSRYAYWYQQKPGQAPVVVIYDDSDRPSGIPERFSGSNSGNTATLTISGTQAEDEADYYCAAYTFYARTVFGGGTKLTVLG
notes: as for B1
B6: TP-2D7 (Fab, V domains shown)
VH: QVQLQQSGPGLVKPSQTLSLTCAISGDSVSSNSAAWGWIRQSPGRGLEWLGLIYYRSKWYNDYAVSVKSRITINPDTSKNQFSLQLNSVTPEDTAVYYCARFGDTNRNGTDVWGQGTLVTVSS
VL: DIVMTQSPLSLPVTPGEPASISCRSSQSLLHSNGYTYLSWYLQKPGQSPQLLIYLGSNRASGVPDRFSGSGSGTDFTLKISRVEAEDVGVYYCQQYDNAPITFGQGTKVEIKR
notes: as for B1
B7: TP-2G9 (Fab, V domains shown)
VH: QVQLVESGGGLVQPGGSLRLSCAASGFTFNSYAMTWVRQAPGKGLEWVSAIKSDGSNTYYADSVKGRFTISRDNSKNTLYLQMNSLRAEDTAVYYCARNDSGWFDVWGQGTLVTVSS
VL: DIALTQPASVSGSPGQSITISCTGTSSDLGGFNTVSWYQQHPGKAPKLMIYSVSSRPSGVSNRFSGSKSGNTASLTISGLQAEDEADYYCQSYDLNNLVFGGGTKLTVLG
notes: as for B1
B8: TP-2G4 (Fab, V domains shown)
VH: QVQLVESGGGLVQPGGSLRLSCAASGFTFSSYAMTWVRQAPGKGLEWVSNISYSGSNTYYADSVKGRFTISRDNSKNTLYLQMNSLRAEDTAVYYCARVGYYYGFDYWGQGTLVTVSS
VL: DIELTQPPSVSVAPGQTARISCSGDALRKHYVYWYQQKPGQAPVLVIYGDNNRPSGIPERFSGSNSGNTATLTISGTQAEDEADYYCQSYDKPYPILVFGGGTKLTVLG
notes: as for B1
B9: TP-2A2 (Fab, V domains shown)
VH: QVQLVESGGGLVQPGGSLRLSCAASGFTFSNNAMNWVRQAPGKGLEWVSTISYDGSNTYYADSVKGRFTISRDNSKNTLYLQMNSLRAEDTAVYYCARQAGGWTYSYTDVWGQGTLVTVSS
VL: DIELTQPPSVSVAPGQTARISCSGDNIRTYYVHWYQQKPGQAPVVVIYGDSKRPSGIPERFSGSNSGNTATLTISGTQAEDEADYYCQSYDSEADSEVFGGGTKLTVLG
notes: as for B1
B10: TP-2G7 (Fab, V domains shown)
VH: QVQLVESGGGLVQPGGSLRLSCAASGFTFNSYAMSWVRQAPGKGLEWVSNISSNSSNTYYADSVKGRFTISRDNSKNTLYLQMNSLRAEDTAVYYCARKGGGEHGFFPSDIWGQGTLVTVSS
VL: B9 VL with I27L, R28G, V45L, S51N, K52N, S89T, E93N, A94N, D95E, E97I
notes: as for B1
B11: TP-2F9 (Fab, V domains shown)
VH: QVQLVESGGGLVQPGGSLRLSCAASGFTFYKYAMHWVRQAPGKGLEWVSGIQYDGSYTYYADSVKGRFTISRDNSKNTLYLQMNSLRAEDTAVYYCARYYCKCVDLWGQGTLVTVSS
VL: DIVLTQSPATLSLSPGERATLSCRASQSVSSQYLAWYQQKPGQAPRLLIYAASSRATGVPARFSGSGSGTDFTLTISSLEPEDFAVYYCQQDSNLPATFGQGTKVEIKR
notes: as for B1
B12: TP-2G2 (Fab, V domains shown)
VH: QVQLVESGGGLVQPGGSLRLSCAASGFTFSSYAMNWVRQAPGKGLEWVSAILSDGSSTSYADSVKGRFTISRDNSKNTLYLQMNSLRAEDTAVYYCARYPDWGWYTDVWGQGTLVTVSS
VL: DIELTQPPSVSVAPGQTARISCSGDNIRKFYVHWYQQKPGQAPVLVIYGTNKRPSGIPERFSGSNSGNTATLTISGTQAEDEADYYCQSYDSKFNTVFGGGTKLTVLG
notes: as for B1
B13: TP-2B9 (Fab, V domains shown)
VH: QVQLQQSGPGLVKPSQTLSLTCAISGDSVSSNSAAWGWIRQSPGRGLEWLGMIYHRSKWYNDYAVSVKSRITINPDTSKNQFSLQLNSVTPEDTAVYYCARYSSIGHMDYWGQGTLVTVSS
VL: DIQMTQSPSSLSASVGDRVTITCRASQSIRSYLAWYQQKPGKAPKLLIYKASNLQSGVPSRFSGSGSGTDFTLTISSLQPEDFAVYYCHQYSDSPVTFGQGTKVEIKR
notes: as for B1
B14: TP-2E3 (Fab, V domains shown)
VH: B13 VH with H55Y, Y102V, S103N, S104Q, I105Y, G106T, H107S, M108S
VL: DIALTQPASVSGSPGQSITISCTGTSSDIGGYNYVSWYQQHPGKAPKLMIYGVNYRPSGVSNRFSGSKSGNTASLTISGLQAEDEADYYCSSADKFTMSIVFGGGTKLTVLG
notes: as for B1
B15: TP-2H10 (Fab, V domains shown)
VH: B13 VH with S33G, M52F, H55R, D62S, Y102Q, S103D, S104G, I105M, H107G, Y110S
VL: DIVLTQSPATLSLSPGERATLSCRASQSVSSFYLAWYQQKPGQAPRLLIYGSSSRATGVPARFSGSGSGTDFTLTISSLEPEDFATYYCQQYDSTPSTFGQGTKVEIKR
notes: as for B1
B16: TP-2G5 (Fab, V domains shown)
VH: B13 VH with G37S, M52F, H55Y, Y102H, S103N, S104P, I105D, G106L, H107G, M108F
VL: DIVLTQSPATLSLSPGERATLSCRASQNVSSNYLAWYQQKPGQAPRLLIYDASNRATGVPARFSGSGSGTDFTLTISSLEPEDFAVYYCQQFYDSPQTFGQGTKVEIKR
notes: as for B1
B17: TP-2A5.1 (Fab, V domains shown)
VH: QVQLVESGGGLVQPGGSLRLSCAASGFTFSSYGSWVRQAPGKGLEWVSVISGSGSSTYYADSVKGRFTISRDNSKNTLYLQMNSLRAEDTAVYYCARVNISTHFDVWGQGTLVTVSS
VL: DIELTQPPSVSVAPGQTARISCSGDNIPEKYVHWYQQKPGQAPVLVIHGDNNRPSGIPERFSGSNSGNTATLTISGTQAEDEADYYCQSFDAGSYFVFGGGTKLTVLG
notes: as for B1

These binders were tested against T1, ヒト組織因子経路インヒビター (human TFPI) (assay: ELISA, Fab in bacterial lysate on human TFPI-coated plate).

| binding result | Binder |
| --- | --- |
| binds | B1 |
| binds | B2 |
| binds | B3 |
| binds | B4 |
| binds | B5 |
| binds | B6 |
| binds | B7 |
| binds | B8 |
| binds | B9 |
| binds | B10 |
| binds | B11 |
| binds | B12 |
| binds | B13 |
| binds | B14 |
| binds | B15 |
| binds | B16 |
| binds | B17 |
